Experimental data taken from patent publication US20240158497A1 (published 2024).

B1: MAb16618 (antibody, V domains shown)
VH: QVQLQESGPGLVKPSETLSLTCTVSGGSISNYYWTWIRQPPGKGLEWIGHISNSGTTNYNPSLKSRVTISVDTSKNQFSLKLTSVTAADTAVYYCARLPLGIAAVDTDYYYYFGMDVWGQGTTVTVSS
VL: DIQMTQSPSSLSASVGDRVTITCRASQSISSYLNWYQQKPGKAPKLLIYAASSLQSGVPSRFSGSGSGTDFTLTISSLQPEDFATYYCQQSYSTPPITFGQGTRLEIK
B2: MAb16662 (antibody, V domains shown)
VH: EVQLVESGGGLVQPGGSLRLSCTASGFTFSNYAIFWVRQAPGKGLEYVSGISNNGVTKYYADSVRDRFTISRDNSRNTVSIQMDSLRTEDMAVYYCARENWGSDDGFDIWGQGTMVTVSS
VL: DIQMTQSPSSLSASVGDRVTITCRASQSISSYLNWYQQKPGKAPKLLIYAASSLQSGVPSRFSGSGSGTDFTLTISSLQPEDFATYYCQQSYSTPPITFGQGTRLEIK
B3: MAb16666 (antibody, V domains shown)
VH: EVQLVESGGGLVQSGGSLRLSCAASGFTFSRYEMNWVRQAPGKGLEWVAYISNTGTTRDYSDSVKGRFTISRDNAKNSLYLQMSSLRVEDTAVYYCVREKFSGTSDWFDPWGQGTLVTVSS
VL: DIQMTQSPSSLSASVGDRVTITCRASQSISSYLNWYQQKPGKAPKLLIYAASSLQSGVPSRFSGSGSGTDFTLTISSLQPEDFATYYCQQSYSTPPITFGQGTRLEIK
B4: MAb16636 (antibody, V domains shown)
VH: QLQLQESGPGLVKPSETLSLICTVSGGSISSNNYYWGWIRQPPGKGLEWIGNLYGSGSTYYNPSLKSRVTISVDTSKNQFSLKLSFVTAADTAVYHCARWDTNGGAFDIWGQGTMVTVSS
VL: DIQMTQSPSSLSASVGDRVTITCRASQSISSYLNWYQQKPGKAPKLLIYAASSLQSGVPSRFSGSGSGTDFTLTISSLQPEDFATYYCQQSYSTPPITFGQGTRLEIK
B5: MAb16665 (antibody, V domains shown)
VH: QVQLVESGGGVVQPGRSLRLACAASGFTFRSYGMHWVRQAPGKGLEWVAVIWYDGSNKYYTDSVKGRFTISRDNSKNTLYLQMNSLRAEDTAMYYCAIDKWATVTTYLFDYWGQGTLVTVSS
VL: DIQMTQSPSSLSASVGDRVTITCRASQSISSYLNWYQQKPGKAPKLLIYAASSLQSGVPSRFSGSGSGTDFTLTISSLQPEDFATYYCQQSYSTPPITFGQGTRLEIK
B6: MAb16659 (antibody, V domains shown)
VH: QVQLVQSGPEVKKPGSSVKVSCKASGGTIDRNEITWVRQAPGQGLEWMGVIIPILGEAHYERKFQGRLTITMDESTSTAYMELSNLRSEDTAVYYCARERAARGYLDYWGQGTLVTVSS
VL: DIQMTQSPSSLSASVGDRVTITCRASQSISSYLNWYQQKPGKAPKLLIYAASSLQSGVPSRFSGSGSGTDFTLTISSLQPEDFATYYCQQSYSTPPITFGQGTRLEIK
B7: MAb16622 (antibody, V domains shown)
VH: EVQLVESGGGVVRPGGSLRLSCTASGFTFDDYGMSWVRQAPGKGLEWVSGINWNGGRTEYADAVKGRFIISRDNAKNSLYLQMNSLRAEDTALYFCARTELRWDYWGQGTLVTVSS
VL: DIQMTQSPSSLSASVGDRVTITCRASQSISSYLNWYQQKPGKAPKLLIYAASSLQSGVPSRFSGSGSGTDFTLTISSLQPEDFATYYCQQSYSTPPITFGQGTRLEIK
B8: MAb16673 (antibody, V domains shown)
VH: EVQLVQSGAEVKKPGESLKISCKGSGYSFTSYWIDWVRQMPGKGLEWMGIIYPDDSDTRYSPSFQGQVTMSVDKSISTAYLQWSSLKASDTAIYYCARHERGIVEAGTDYYYYYGMDVWGQGTTVTVSS
VL: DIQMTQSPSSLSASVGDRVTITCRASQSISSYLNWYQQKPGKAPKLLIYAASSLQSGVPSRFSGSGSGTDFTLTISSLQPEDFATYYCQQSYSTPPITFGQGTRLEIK
B9: MAb16682 (antibody, V domains shown)
VH: EVQLVESGGGLVQPGGSLRLSCAASGFTFSTYWMNWVRQAPGKGLEWVANIKEDGSEKYYVDSVKGRFTISRDNAKNSLYLQMNSLRAEDTAVYYCAREGFGVVTYIWGQGTMVTVSS
VL: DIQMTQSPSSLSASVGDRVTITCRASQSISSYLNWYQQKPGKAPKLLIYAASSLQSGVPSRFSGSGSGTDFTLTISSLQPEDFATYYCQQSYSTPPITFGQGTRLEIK
B10: MAb16656 (antibody, V domains shown)
VH: EVQLVESGGGLVQPGRSLRLSCAASGFTLDDFAMHWVRQAPGKGLEWVSGISWNSGNIGYADSVKGRFTISRDNARNSLYLQMNSLRAEDTALYYCTSGYYLYYAMDVWGQGTTVTVSS
VL: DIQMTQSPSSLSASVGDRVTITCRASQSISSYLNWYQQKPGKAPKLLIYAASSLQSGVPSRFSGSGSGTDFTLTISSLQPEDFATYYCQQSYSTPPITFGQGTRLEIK
B11: MAb16637 (antibody, V domains shown)
VH: QVQLVQSGAEVKKPGASVKVSCKASGYTFTSLGISWVRQAPGQGLEWMGWISAYSGNRDYAQKFQGRVTMTTDTSTSTAYMELRSLRSDDTAVYYCARSLRFDYWGQGTLVTVSS
VL: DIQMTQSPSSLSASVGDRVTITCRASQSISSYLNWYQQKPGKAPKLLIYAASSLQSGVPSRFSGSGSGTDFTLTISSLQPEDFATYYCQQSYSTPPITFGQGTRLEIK
B12: MAb16664 (antibody, V domains shown)
VH: QVQLVQSGTEVKKPGSSVKVSCKASGGTFSTYPINWVRQAPGQGLEWMGGIIPIFGTASYAQKFQGRVAITTDESTSTAYMELNSLRSEDTAVYYCARERPNWGSNDYWGQGTLVTVSS
VL: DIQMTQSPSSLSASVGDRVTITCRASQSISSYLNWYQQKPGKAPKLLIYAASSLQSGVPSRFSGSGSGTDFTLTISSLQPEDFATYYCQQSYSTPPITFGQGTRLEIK
B13: MAb16676 (antibody, V domains shown)
VH: QVQLVQSGAEVMKPGASVKVSCRASGYTFSSYDINWVRQAPGQGLEWMGWISTATGNTNYPQKVQGRVTMTTDTSTNTAYMELRSLRSDDTAVYYCTREGNSKGWLDPWGQGTLVTVSS
VL: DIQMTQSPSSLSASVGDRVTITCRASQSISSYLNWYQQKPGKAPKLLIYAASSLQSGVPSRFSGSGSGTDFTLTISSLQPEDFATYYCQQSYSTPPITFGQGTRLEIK
B14: MAb16614 (antibody, V domains shown)
VH: QVQLVESGGGVVQPGGSLRLSCAASGFTFSTYDIHWVRQAPGKGLEWVAVISFDGSNRNYGDSVKGRFTISRDNSDNTLFLEMNNLRFEDTAVYYCAKEGYGVDFQHWGQGTLVTVSS
VL: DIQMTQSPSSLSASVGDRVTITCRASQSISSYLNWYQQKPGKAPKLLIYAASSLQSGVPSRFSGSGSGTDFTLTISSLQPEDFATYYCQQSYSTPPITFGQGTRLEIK

target: T1, human GP130 extracellular domain expressed with a C-terminal myc-myc-hexahistidine tag (human, UniProt P40189 23-619); assay: SPR 25C, mAb captured, hGP130-MMH injected
T1 construct: monomeric; also called hGP130-mmH; hGP130-MMH
Method: (§1) Equilibrium dissociation constant (KD) for different GP130 reagents binding to purified anti-GP130 monoclonal antibodies were determined using a real-time surface plasmon resonance based Biacore 4000 biosensor. All binding studies were performed in 10 mM HEPES, 150 mM NaCl, 3 mM EDTA, and 0.05% v/v Surfactant Tween-20, pH 7.4 (HBS-ET) running buffer at 25° C. and 37° C. The Biacore sensor surface was first derivatized by amine coupling with a monoclonal mouse anti-human Fc antibody (GE, #BR-1008-39) to capture anti-GP130 monoclonal antibodies. […] Reagents tagged with “mmH” are monomeric, whereas reagents tagged with “mFc” are dimeric. Thus, for example, “hGP130-mmH” is also referred to as “monomeric human GP130,” and “hGP130-mFc” is also referred to as “dimeric human GP130.”
(§2) The association rate (k a) and dissociation rate (kd) were determined by fitting the real-time binding sensorgrams to a 1:1 binding model with mass transport limitation using Scrubber 2.0c curve-fitting software. Binding dissociation equilibrium constant (KD) and dissociative half-life (t ½) were calculated from the kinetic rates as: […]

100 nM Ag Bound (RU) | Kd | koff | kon | t½ | Binder
52 RU | 120 nM | 0.0425 s⁻¹ | 354000 M⁻¹ s⁻¹ | 0.3 min | B1
22 RU | 123 nM | 0.029 s⁻¹ | 235000 M⁻¹ s⁻¹ | 0.4 min | B2
138 RU | 14.4 nM | 0.00456 s⁻¹ | 317000 M⁻¹ s⁻¹ | 3 min | B3
37 RU | 36.8 nM | 0.000993 s⁻¹ | 27000 M⁻¹ s⁻¹ | 12 min | B4
20 RU | 411 nM | 0.0473 s⁻¹ | 115000 M⁻¹ s⁻¹ | 0.2 min | B5
77 RU | 0.663 nM | 0.000459 s⁻¹ | 693000 M⁻¹ s⁻¹ | 25 min | B6
36 RU | 203 nM | 0.0243 s⁻¹ | 120000 M⁻¹ s⁻¹ | 0.5 min | B7
58 RU | 65.5 nM | 0.0141 s⁻¹ | 215000 M⁻¹ s⁻¹ | 0.8 min | B8
21 RU | 136 nM | 0.0164 s⁻¹ | 121000 M⁻¹ s⁻¹ | 0.7 min | B9
44 RU | 23 nM | 0.000825 s⁻¹ | 35900 M⁻¹ s⁻¹ | 14 min | B10
91 RU | 15.5 nM | 0.0011 s⁻¹ | 71100 M⁻¹ s⁻¹ | 10 min | B11
14 RU | 2.35 nM | 0.00164 s⁻¹ | 698000 M⁻¹ s⁻¹ | 7 min | B12
51 RU | 2.19 nM | 0.000631 s⁻¹ | 287000 M⁻¹ s⁻¹ | 18 min | B13
18 RU | 183 nM | 0.0101 s⁻¹ | 55200 M⁻¹ s⁻¹ | 1.1 min | B14

target: T2, human GP130 delta D1 expressed with a C-terminal myc-myc hexahistidine tag (human, UniProt P40189 124-619); assay: Luminex, myc-captured antigen
T2 construct: CHO supernatant, captured on anti-myc microspheres; also called human GP130 delta D1-MMH
Method: (§3) Aliquots of microspheres with immobilized anti-myc monoclonal antibodies, prepared as described above, were added individually to 1 mL of the each of these protein supernatants and to 500 uL of purified GP130 protein. The microspheres were gently mixed, incubated for two hours at 25° C., washed twice with 1 mL of DBPS, centrifuged to remove the supernatant and finally resuspended in 1 mL of DPBS buffer. Forty eight μL of anti-myc IgG coupled microspheres from individual reactions with full length human GP130 and with each of the human GP130 domain proteins were withdrawn and mixed together in 3.6 mL of PBS+20 mg/mL BSA+0.05% sodium azide (blocking buffer).
(§4) From this mixed pool, 75 μL of microspheres were plated per well on a 96 well filter plate (Millipore, Cat. No: MSBVN1250) and mixed with 25 μL of individual anti-human GP130 monoclonal antibodies (0.5 or 5 μg/mL), incubated for two hours at 25° C. and then washed twice with 200 μL of DPBS with 0.05% Tween 20 (washing buffer). To detect and quantify the amounts of bound anti-GP130 antibody levels to individual microspheres, either 100 μL of 2.5 μg/mL R-Phycoerythrin conjugated goat F(ab′)2 anti-human kappa (Southern Biotech, Cat #2063-09) in blocking buffer, was added and incubated for 30 minutes at 25° C. After 30 minutes, the samples were washed twice with 200 μL of washing buffer and resuspended in 150 μL of wash buffer. The Median Fluorescence intensity (MFI) of the microspheres was measured in a Luminex Analyzer.

T2 sequence (P40189 other isoform, or with tags, fused parts or gaps mutant limits assumed): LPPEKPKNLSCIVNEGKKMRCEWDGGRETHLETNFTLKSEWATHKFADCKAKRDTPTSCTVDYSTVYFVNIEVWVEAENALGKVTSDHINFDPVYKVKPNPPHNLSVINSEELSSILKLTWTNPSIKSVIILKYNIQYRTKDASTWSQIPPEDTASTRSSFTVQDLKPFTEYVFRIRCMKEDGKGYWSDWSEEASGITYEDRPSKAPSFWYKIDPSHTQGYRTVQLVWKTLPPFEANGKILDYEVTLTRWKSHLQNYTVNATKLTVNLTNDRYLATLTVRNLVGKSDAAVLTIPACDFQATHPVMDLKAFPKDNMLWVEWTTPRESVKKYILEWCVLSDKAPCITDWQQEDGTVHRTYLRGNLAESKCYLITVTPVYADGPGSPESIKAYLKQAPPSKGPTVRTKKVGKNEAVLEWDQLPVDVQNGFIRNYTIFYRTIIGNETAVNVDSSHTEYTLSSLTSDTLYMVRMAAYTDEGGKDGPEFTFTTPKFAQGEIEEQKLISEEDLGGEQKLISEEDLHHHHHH

binding result | Binder
no binding (tested: 0.5 or 5 µg/mL) | B5
no binding (tested: 0.5 or 5 µg/mL) | B6
no binding (tested: 0.5 or 5 µg/mL) | B10
no binding (tested: 0.5 or 5 µg/mL) | B11
no binding (tested: 0.5 or 5 µg/mL) | B12
no binding (tested: 0.5 or 5 µg/mL) | B13

target: T3, human GP130 delta D1-D3 expressed with a C-terminal myc-myc hexahistidine tag (human, UniProt P40189 329-619); assay: Luminex, myc-captured antigen
T3 construct: CHO supernatant, captured on anti-myc microspheres; also called human GP130 delta D1-D3-MMH
Method: as §3, §4

T3 sequence (P40189 other isoform, or with tags, fused parts or gaps mutant limits assumed): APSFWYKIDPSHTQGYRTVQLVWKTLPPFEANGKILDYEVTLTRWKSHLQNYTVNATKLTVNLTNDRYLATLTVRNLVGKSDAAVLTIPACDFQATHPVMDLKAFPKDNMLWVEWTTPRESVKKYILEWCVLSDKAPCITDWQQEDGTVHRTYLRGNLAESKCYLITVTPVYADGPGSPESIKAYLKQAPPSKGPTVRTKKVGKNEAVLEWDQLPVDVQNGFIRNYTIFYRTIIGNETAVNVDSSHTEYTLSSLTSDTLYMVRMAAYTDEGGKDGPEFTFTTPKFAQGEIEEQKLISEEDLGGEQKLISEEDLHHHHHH

binding result | Binder
no binding (tested: 0.5 or 5 µg/mL) | B1
no binding (tested: 0.5 or 5 µg/mL) | B2
no binding (tested: 0.5 or 5 µg/mL) | B3
no binding (tested: 0.5 or 5 µg/mL) | B4
no binding (tested: 0.5 or 5 µg/mL) | B5
no binding (tested: 0.5 or 5 µg/mL) | B6
no binding (tested: 0.5 or 5 µg/mL) | B7
no binding (tested: 0.5 or 5 µg/mL) | B8
no binding (tested: 0.5 or 5 µg/mL) | B9
no binding (tested: 0.5 or 5 µg/mL) | B10
no binding (tested: 0.5 or 5 µg/mL) | B11
no binding (tested: 0.5 or 5 µg/mL) | B12
no binding (tested: 0.5 or 5 µg/mL) | B13
no binding (tested: 0.5 or 5 µg/mL) | B14

target: T4, mouse GP130 extracellular domain expressed with a C-terminal myc-myc-hexahistidine tag (mouse, UniProt Q00560 23-617); assay: SPR
T4 construct: monomeric; also called mGP130-mmH; mGP130-MMH
Method: as §1, §2

T4 sequence (Q00560 other isoform, or with tags, fused parts or gaps): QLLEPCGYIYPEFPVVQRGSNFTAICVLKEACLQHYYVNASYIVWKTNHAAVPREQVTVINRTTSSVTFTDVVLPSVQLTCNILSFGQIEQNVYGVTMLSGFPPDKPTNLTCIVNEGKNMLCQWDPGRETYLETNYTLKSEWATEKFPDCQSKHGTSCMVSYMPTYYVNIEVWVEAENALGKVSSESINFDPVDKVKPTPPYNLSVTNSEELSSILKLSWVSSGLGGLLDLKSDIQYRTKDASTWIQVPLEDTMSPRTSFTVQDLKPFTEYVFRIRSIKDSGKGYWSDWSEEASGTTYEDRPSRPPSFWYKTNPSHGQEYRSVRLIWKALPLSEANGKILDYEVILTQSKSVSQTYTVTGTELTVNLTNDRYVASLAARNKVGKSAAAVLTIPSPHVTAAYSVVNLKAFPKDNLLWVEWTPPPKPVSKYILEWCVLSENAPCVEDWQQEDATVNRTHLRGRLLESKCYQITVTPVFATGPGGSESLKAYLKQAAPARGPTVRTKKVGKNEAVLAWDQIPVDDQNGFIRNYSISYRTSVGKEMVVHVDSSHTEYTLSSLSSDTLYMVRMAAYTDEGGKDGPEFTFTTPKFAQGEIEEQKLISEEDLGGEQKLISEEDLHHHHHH

binding result | Binder
no binding (tested: 100 nM) | B1
no binding (tested: 100 nM) | B2
no binding (tested: 100 nM) | B3
no binding (tested: 100 nM) | B4
no binding (tested: 100 nM) | B5
no binding (tested: 100 nM) | B6
no binding (tested: 100 nM) | B7
no binding (tested: 100 nM) | B8
no binding (tested: 100 nM) | B9
no binding (tested: 100 nM) | B10
no binding (tested: 100 nM) | B11
no binding (tested: 100 nM) | B12
no binding (tested: 100 nM) | B13
no binding (tested: 100 nM) | B14
